From patent publication US20200199241A1 (Chugai, published 2020)
Residue numbers refer to the chain shown, from its start.

T1: FcγRIIb (human, UniProt P31994 43-217, limits assumed)
T1 construct: also called FcgRIIb; FcγIIB
T1 sequence: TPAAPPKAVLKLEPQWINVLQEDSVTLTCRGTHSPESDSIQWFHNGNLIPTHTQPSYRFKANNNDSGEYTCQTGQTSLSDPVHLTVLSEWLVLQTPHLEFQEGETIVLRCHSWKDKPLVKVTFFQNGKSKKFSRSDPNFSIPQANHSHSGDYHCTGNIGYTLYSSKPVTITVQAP

T2: FcγRIIa type H (human, UniProt P12318 36-217)
T2 construct: also called FcγRIIaH; FcγRIIH
T2 sequence: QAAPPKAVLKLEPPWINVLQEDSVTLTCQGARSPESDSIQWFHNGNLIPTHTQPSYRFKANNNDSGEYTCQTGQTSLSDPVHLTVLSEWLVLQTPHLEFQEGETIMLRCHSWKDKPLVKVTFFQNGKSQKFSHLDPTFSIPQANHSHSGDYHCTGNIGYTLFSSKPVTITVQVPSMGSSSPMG

B1: IL6R-2B253/IL6R-L (antibody, human IgG1)
heavy: QVQLQESGPGLVKPSETLSLTCAVSGHSISHDHAWSWVRQPPGEGLEWIGFISYSGITNYNPSLQGRVTISRDNSKNTLYLQMNSLRAEDTAVYYCARSLARTTAMDYWGEGTLVTVSSASTKGPSVFPLAPSSKSTSGGTAALGCLVKDYFPEPVTVSWNSGALTSGVHTFPAVLQSSGLYSLSSVVTVPSSSLGTQTYICNVNHKPSNTKVDKKVEPKSCDKTHTCPPCPAPDLLGGDSVFLFPPKPKDTLMISRTPEVTCVVVDVSHEDPEVKFNWYVDGVEVHNAKTKPREEQYNSTYRVVSVLTVLHQDWLNGKEYKCKMSNKALPAPIEKTISKAKGQPREPQVYTLPPSRDELTKNQVSLTCLVKGFYPSDIAVEWESNGQPENNYKTTPPVLDSDGSFFLYSKLTVDKSRWQQGNVFSCSVMHEALHNHYTQESLSLSP
light: DIQMTQSPSSLSASVGDRVTITCRASQDISSYLNWYQQKPGKAPKLLIYYTSRLHSGVPSRFSGSGSGTDFTFTISSLQPEDIATYYCQQGNTLPYTFGQGTKVEIK
notes: IgG1; Fc variant of IL6R-B3; copies: 2 + 2
B2: IL6R-BP089/IL6R-L (antibody, human IgG1)
heavy: B1 heavy with D235E, L236Y, M325V, K328A, A332K
light: B1 light
notes: as for B1
B3: IL6R-BP085/IL6R-L (antibody, human IgG1)
heavy: B1 heavy with D235E, G239D, M325V, A332K
light: B1 light
notes: as for B1
B4: IL6R-BP129/IL6R-L (antibody, human IgG1)
heavy: B1 heavy with Y298D, M325V, A332K
light: B1 light
notes: as for B1
B5: IL6R-BP144/IL6R-L (antibody, human IgG1)
heavy: B1 heavy with D235E, G239D, M325V, K328A
light: B1 light
notes: as for B1
B6: IL6R-BP143/IL6R-L (antibody, human IgG1)
heavy: B1 heavy with D235E, L236Y, M325V, K328A
light: B1 light
notes: as for B1
B7: IL6R-BP145/IL6R-L (antibody, human IgG1)
heavy: B1 heavy with D235E, L236Y, G239D, M325V
light: B1 light
notes: as for B1
B8: IL6R-BP148/IL6R-L (antibody, human IgG1)
heavy: B1 heavy with L236Y, G239D, M325V, K328A, A332K
light: B1 light
notes: as for B1
B9: IL6R-BP133/IL6R-L (antibody, human IgG1)
heavy: B1 heavy with L236Y, M325V, A332K
light: B1 light
notes: as for B1
B10: IL6R-BP087/IL6R-L (antibody, human IgG1)
heavy: B1 heavy with D235E, L236Y, M325V, A332K
light: B1 light
notes: as for B1
B11: IL6R-BP149/IL6R-L (antibody, human IgG1)
heavy: B1 heavy with L236Y, G239D, Y298D, M325V, K328A, A332K
light: B1 light
notes: as for B1
B12: IL6R-BP211/IL6R-L (antibody, human IgG1)
heavy: B1 heavy with H270D, P273G, M325V, K328A, A332R
light: B1 light
notes: as for B1
B13: IL6R-BP083/IL6R-L (antibody, human IgG1)
heavy: B1 heavy with D235E, Y298D, M325V, A332K
light: B1 light
notes: as for B1
B14: IL6R-BP084/IL6R-L (antibody, human IgG1)
heavy: B1 heavy with D235E, A332K
light: B1 light
notes: as for B1
B15: IL6R-BP205/IL6R-L (antibody, human IgG1)
heavy: B1 heavy with P273G, Y298D, M325V, A332R
light: B1 light
notes: as for B1
B16: IL6R-BP086/IL6R-L (antibody, human IgG1)
heavy: B1 heavy with D235E, M325V, K328A, A332K
light: B1 light
notes: as for B1
B17: IL6R-BP132/IL6R-L (antibody, human IgG1)
heavy: B1 heavy with M325V, K328A, A332K
light: B1 light
notes: as for B1
B18: IL6R-BP088/IL6R-L (antibody, human IgG1)
heavy: B1 heavy with D235E, G239D, M325V, K328A, A332K
light: B1 light
notes: as for B1
B19: IL6R-BP082/IL6R-L (antibody, human IgG1)
heavy: B1 heavy with M325V, A332K
light: B1 light
notes: as for B1
B20: IL6R-BP210/IL6R-L (antibody, human IgG1)
heavy: B1 heavy with D235E, G239D, H270D, P273G, M325V, A332R
light: B1 light
notes: as for B1
B21: IL6R-2B261/IL6R-L (antibody, human IgG1)
heavy: B1 heavy with Y298D, M325V
light: B1 light
notes: as for B1
B22: IL6R-BP212/IL6R-L (antibody, human IgG1)
heavy: B1 heavy with H270D, P273G, Y298D, M325V, A332R
light: B1 light
notes: as for B1
B23: IL6R-BP191/IL6R-L (antibody, human IgG1)
heavy: B1 heavy with H270D, P273G, M325V, K328A, A332K
light: B1 light
notes: as for B1
B24: IL6R-BP151/IL6R-L (antibody, human IgG1)
heavy: B1 heavy with L236Y, G239D, M325V, K328A, A332R
light: B1 light
notes: as for B1
B25: IL6R-BP131/IL6R-L (antibody, human IgG1)
heavy: B1 heavy with G239D, M325V, A332K
light: B1 light
notes: as for B1
B26: IL6R-BP190/IL6R-L (antibody, human IgG1)
heavy: B1 heavy with D235E, G239D, H270D, P273G, M325V, A332K
light: B1 light
notes: as for B1
B27: IL6R-BP181/IL6R-L (antibody, human IgG1)
heavy: B1 heavy with P273G, M325V, K328A, A332K
light: B1 light
notes: as for B1
B28: IL6R-BP195/IL6R-L (antibody, human IgG1)
heavy: B1 heavy with L236Y, G239D, H270D, P273G, Y298D, M325V, K328A, A332K
light: B1 light
notes: as for B1

target: T1, FcγRIIb; assay: SPR (Biacore), bound amount, IL6R-BF648/IL6R-L = 100
Procedure: (§1) According to the following method, relative binding activities were calculated for the results of analyzing interactions with the respective FcγRs.

relative binding activity	Binder
156 % of control	B1
147 % of control	B2
152 % of control	B3
138 % of control	B4
121 % of control	B5
133 % of control	B6
152 % of control	B7
176 % of control	B8
137 % of control	B9
137 % of control	B10
173 % of control	B11
165 % of control	B12
122 % of control	B13
141 % of control	B14
167 % of control	B15
137 % of control	B16
150 % of control	B17
161 % of control	B18
136 % of control	B19
187 % of control	B20
115 % of control	B21
173 % of control	B22

target: T2, FcγRIIa type H; assay: as above
Procedure: as §1

relative binding activity	Binder
207 % of control	B1
186 % of control	B2
145 % of control	B23
158 % of control	B3
98 % of control	B4
108 % of control	B5
143 % of control	B6
224 % of control	B7
462 % of control	B8
151 % of control	B9
179 % of control	B10
401 % of control	B11
91 % of control	B13
621 % of control	B24
162 % of control	B14
253 % of control	B25
108 % of control	B15
116 % of control	B16
130 % of control	B17
166 % of control	B18
106 % of control	B19
279 % of control	B20
224 % of control	B26
150 % of control	B27
91 % of control	B21
135 % of control	B22
344 % of control	B28

target: T3, FcγRIIIa type V (human, UniProt P08637 17-208, limits assumed); assay: as above
T3 construct: also called FcγRIIIaV; FcgRIIIaV
T3 sequence (P08637 other isoform, or with tags, fused parts or gaps limits assumed): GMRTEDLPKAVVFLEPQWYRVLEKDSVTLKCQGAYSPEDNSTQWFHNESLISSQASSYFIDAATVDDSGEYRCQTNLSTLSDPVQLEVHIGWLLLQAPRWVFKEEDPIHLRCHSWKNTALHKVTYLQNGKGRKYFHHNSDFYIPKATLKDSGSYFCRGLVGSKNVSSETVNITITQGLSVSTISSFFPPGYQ
Procedure: as §1

relative binding activity	Binder
126 % of control	B1
136 % of control	B2
142 % of control	B23
104 % of control	B3
95 % of control	B4
128 % of control	B5
114 % of control	B6
153 % of control	B7
227 % of control	B8
114 % of control	B9
158 % of control	B10
186 % of control	B11
87 % of control	B12
107 % of control	B13
221 % of control	B24
106 % of control	B14
118 % of control	B25
123 % of control	B16
120 % of control	B17
122 % of control	B18
67 % of control	B19
155 % of control	B26
122 % of control	B27
87 % of control	B21
221 % of control	B28

target: T4, FcγRIa (human, UniProt P12314 16-292, limits assumed); assay: as above
T4 construct: also called FcgRIa; CD64
T4 sequence (P12314 16-292 limits assumed): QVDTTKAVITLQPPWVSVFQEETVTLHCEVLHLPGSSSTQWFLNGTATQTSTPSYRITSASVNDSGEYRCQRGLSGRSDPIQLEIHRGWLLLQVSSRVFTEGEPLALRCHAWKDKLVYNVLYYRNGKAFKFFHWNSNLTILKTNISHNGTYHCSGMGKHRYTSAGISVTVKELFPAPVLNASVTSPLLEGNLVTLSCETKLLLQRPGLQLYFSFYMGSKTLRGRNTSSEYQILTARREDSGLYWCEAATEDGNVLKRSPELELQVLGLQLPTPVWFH
Procedure: as §1

relative binding activity	Binder
155 % of control	B1
43 % of control	B2
125 % of control	B23
19 % of control	B3
68 % of control	B4
64 % of control	B5
86 % of control	B6
41 % of control	B7
33 % of control	B8
41 % of control	B9
33 % of control	B10
29 % of control	B11
128 % of control	B12
50 % of control	B13
39 % of control	B24
109 % of control	B14
33 % of control	B25
97 % of control	B15
72 % of control	B16
91 % of control	B17
25 % of control	B18
74 % of control	B19
57 % of control	B20
50 % of control	B26
100 % of control	B21
117 % of control	B22
66 % of control	B28
